Laboratory results as given in patent publication US20260167699A1 (Chugai, published 2026).

T1: FcγRIIa(R) (human, UniProt P12318 34-217)
T1 construct: extracellular domain; also called FcγRIIa R type; 2aR
T1 sequence: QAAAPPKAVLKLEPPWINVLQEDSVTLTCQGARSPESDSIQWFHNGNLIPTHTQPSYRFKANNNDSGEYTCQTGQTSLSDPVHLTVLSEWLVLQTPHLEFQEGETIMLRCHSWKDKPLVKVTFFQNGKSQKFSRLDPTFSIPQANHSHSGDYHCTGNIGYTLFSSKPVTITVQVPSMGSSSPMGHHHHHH

T2: FcγRIIa(H) (human, UniProt P12318 34-217)
T2 construct: extracellular domain; also called FcγRIIa H type; 2aH
T2 sequence: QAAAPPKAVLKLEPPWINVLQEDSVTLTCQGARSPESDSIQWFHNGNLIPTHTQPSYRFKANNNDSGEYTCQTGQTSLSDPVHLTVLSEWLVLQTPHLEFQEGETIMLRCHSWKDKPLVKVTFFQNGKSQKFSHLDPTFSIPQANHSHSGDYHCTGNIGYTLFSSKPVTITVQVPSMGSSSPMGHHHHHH

T3: FcγRIIb (human, UniProt P31994 43-217)
T3 construct: extracellular domain; also called 2b
T3 sequence: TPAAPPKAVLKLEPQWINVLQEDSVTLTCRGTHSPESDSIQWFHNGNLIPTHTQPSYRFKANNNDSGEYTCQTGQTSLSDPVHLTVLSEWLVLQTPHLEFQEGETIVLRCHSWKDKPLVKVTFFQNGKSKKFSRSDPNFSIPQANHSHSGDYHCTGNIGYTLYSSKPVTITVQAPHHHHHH


Tests used:
Assay in all cases: SPR (Biacore), binding relative to GpH7-A5/GpH7-B3/GpL16-k0 x100;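 further: surface plasmon resonance at 25 °C, antibody captured on a sensor chip and soluble FcγR flowed over it in HBS-EP+ running buffer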
[1] = target: T1, FcγRIIa(R)
Method: (§1) The antibody of interest was analyzed for its interaction with FcγR using a BiaCore™ T100, BiaCore™ A100, or BiaCore™ 4000 surface plasmon resonance system (GE Healthcare Japan Corp.). The running buffer used was HBS-EP+ (GE Healthcare Japan Corp.). The assay temperature was set to 25° C. The sensor chips used were: a chip prepared by immobilizing antigenic peptides onto Series S Sensor Chip CM5 (GE Healthcare Japan Corp.) by the amine coupling method; a chip prepared by immobilizing antigenic peptides biotinylated in advance onto Series S Sensor Chip SA (certified) (GE Healthcare Japan Corp.) through their interaction; a chip prepared by immobilizing protein L (ACTIGEN, BioVision, Inc.) onto Series S Sensor Chip CM5 (GE Healthcare Japan Corp.); and a chip prepared by immobilizing protein A/G (Thermo Fisher Scientific K.K.) onto Series S Sensor Chip CM5 (GE Healthcare Japan Corp.). The antibody of interest was captured onto any of these chips and allowed to interact with FcγR diluted with a running buffer. The antibody captured on the chip was washed off through the reaction of 10 mM glycine-HCl (pH 1.5) to regenerate the chip, which was repetitively used.

[2] = target: T2, FcγRIIa(H)
Method: as §1

[3] = target: T3, FcγRIIb
Method: as §1

[4] = target: T4, FcγRIa (human, UniProt P12314 16-292)
T4 construct: extracellular domain; also called 1a
T4 sequence (P12314 other isoform, or with tags, fused parts or gaps): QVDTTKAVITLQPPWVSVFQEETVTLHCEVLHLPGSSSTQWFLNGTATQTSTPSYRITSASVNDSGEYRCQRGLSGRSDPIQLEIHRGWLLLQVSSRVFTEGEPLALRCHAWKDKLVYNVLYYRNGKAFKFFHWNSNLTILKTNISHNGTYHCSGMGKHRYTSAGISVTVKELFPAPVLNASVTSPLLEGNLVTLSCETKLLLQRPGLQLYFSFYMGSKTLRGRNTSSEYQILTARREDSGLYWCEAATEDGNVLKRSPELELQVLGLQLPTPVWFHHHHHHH
Method: as §1

He/Con 2aR [1] | He/Con 2aH [2] | He/Con 2b [3] | He/Con 1a [4] | Binder
102% | 99.5% | 100% | 103% | GpH7-A5/GpH7-B3 variant L235_07I/GpL16-k0 (antibody, human IgG1, kappa, heterodimerized IgG1, one H chain mutated; also called He Ab) heavy 1: not shown heavy 2: not shown light: DIVMTQSPLSLPVTPGEPASISCQASESLVHSNRNTYLHWYLQKPGQSPQLLIYKVSNRFSGVPDRFSGSGSGTDFTLKISRVEAEDVGVYYCSQNTHVPPTFGQGTKVEIERTVAAPSVFIFPPSDEQLKSGTASVVCLLNNFYPREAKVQWKVDNALQSGNSQESVTEQDSKDSTYSLSSTLTLSKADYEKHKVYACEVTHQGLSSPVTKSFNRGEC
140% | 84.7% | 224% | 99% | GpH7-A5/GpH7-B3 variant P238_09D/GpL16-k0 (antibody, human IgG1, kappa, heterodimerized IgG1, one H chain mutated; also called He Ab) heavy 1: not shown heavy 2: not shown light: DIVMTQSPLSLPVTPGEPASISCQASESLVHSNRNTYLHWYLQKPGQSPQLLIYKVSNRFSGVPDRFSGSGSGTDFTLKISRVEAEDVGVYYCSQNTHVPPTFGQGTKVEIERTVAAPSVFIFPPSDEQLKSGTASVVCLLNNFYPREAKVQWKVDNALQSGNSQESVTEQDSKDSTYSLSSTLTLSKADYEKHKVYACEVTHQGLSSPVTKSFNRGEC
70.6% | 79.5% | 53.4% | 91.6% | GpH7-A5/GpH7-B3 variant L235_14T/GpL16-k0 (antibody, human IgG1, kappa, heterodimerized IgG1, one H chain mutated; also called He Ab) heavy 1: not shown heavy 2: not shown light: DIVMTQSPLSLPVTPGEPASISCQASESLVHSNRNTYLHWYLQKPGQSPQLLIYKVSNRFSGVPDRFSGSGSGTDFTLKISRVEAEDVGVYYCSQNTHVPPTFGQGTKVEIERTVAAPSVFIFPPSDEQLKSGTASVVCLLNNFYPREAKVQWKVDNALQSGNSQESVTEQDSKDSTYSLSSTLTLSKADYEKHKVYACEVTHQGLSSPVTKSFNRGEC
77.3% | 73.5% | 62.7% | 95.2% | GpH7-A5/GpH7-B3 variant L235_18N/GpL16-k0 (antibody, human IgG1, kappa, heterodimerized IgG1, one H chain mutated; also called He Ab) heavy 1: not shown heavy 2: not shown light: DIVMTQSPLSLPVTPGEPASISCQASESLVHSNRNTYLHWYLQKPGQSPQLLIYKVSNRFSGVPDRFSGSGSGTDFTLKISRVEAEDVGVYYCSQNTHVPPTFGQGTKVEIERTVAAPSVFIFPPSDEQLKSGTASVVCLLNNFYPREAKVQWKVDNALQSGNSQESVTEQDSKDSTYSLSSTLTLSKADYEKHKVYACEVTHQGLSSPVTKSFNRGEC
97.8% | 54.5% | 112% | 101% | GpH7-A5/GpH7-B3 variant P238_19Q/GpL16-k0 (antibody, human IgG1, kappa, heterodimerized IgG1, one H chain mutated; also called He Ab) heavy 1: not shown heavy 2: not shown light: DIVMTQSPLSLPVTPGEPASISCQASESLVHSNRNTYLHWYLQKPGQSPQLLIYKVSNRFSGVPDRFSGSGSGTDFTLKISRVEAEDVGVYYCSQNTHVPPTFGQGTKVEIERTVAAPSVFIFPPSDEQLKSGTASVVCLLNNFYPREAKVQWKVDNALQSGNSQESVTEQDSKDSTYSLSSTLTLSKADYEKHKVYACEVTHQGLSSPVTKSFNRGEC
147% | 57.8% | 221% | 104% | GpH7-A5/GpH7-B3 variant P238_15Y/GpL16-k0 (antibody, human IgG1, kappa, heterodimerized IgG1, one H chain mutated; also called He Ab) heavy 1: not shown heavy 2: not shown light: DIVMTQSPLSLPVTPGEPASISCQASESLVHSNRNTYLHWYLQKPGQSPQLLIYKVSNRFSGVPDRFSGSGSGTDFTLKISRVEAEDVGVYYCSQNTHVPPTFGQGTKVEIERTVAAPSVFIFPPSDEQLKSGTASVVCLLNNFYPREAKVQWKVDNALQSGNSQESVTEQDSKDSTYSLSSTLTLSKADYEKHKVYACEVTHQGLSSPVTKSFNRGEC
117% | 84.3% | 121% | 87.6% | GpH7-A5/GpH7-B3 variant L235_09D/GpL16-k0 (antibody, human IgG1, kappa, heterodimerized IgG1, one H chain mutated; also called He Ab) heavy 1: not shown heavy 2: not shown light: DIVMTQSPLSLPVTPGEPASISCQASESLVHSNRNTYLHWYLQKPGQSPQLLIYKVSNRFSGVPDRFSGSGSGTDFTLKISRVEAEDVGVYYCSQNTHVPPTFGQGTKVEIERTVAAPSVFIFPPSDEQLKSGTASVVCLLNNFYPREAKVQWKVDNALQSGNSQESVTEQDSKDSTYSLSSTLTLSKADYEKHKVYACEVTHQGLSSPVTKSFNRGEC
132% | 81.8% | 207% | 104% | GpH7-A5/GpH7-B3 variant P238_08L/GpL16-k0 (antibody, human IgG1, kappa, heterodimerized IgG1, one H chain mutated; also called He Ab) heavy 1: not shown heavy 2: not shown light: DIVMTQSPLSLPVTPGEPASISCQASESLVHSNRNTYLHWYLQKPGQSPQLLIYKVSNRFSGVPDRFSGSGSGTDFTLKISRVEAEDVGVYYCSQNTHVPPTFGQGTKVEIERTVAAPSVFIFPPSDEQLKSGTASVVCLLNNFYPREAKVQWKVDNALQSGNSQESVTEQDSKDSTYSLSSTLTLSKADYEKHKVYACEVTHQGLSSPVTKSFNRGEC
98.7% | 80% | 90.8% | 96.9% | GpH7-A5/GpH7-B3 variant L235_10E/GpL16-k0 (antibody, human IgG1, kappa, heterodimerized IgG1, one H chain mutated; also called He Ab) heavy 1: not shown heavy 2: not shown light: DIVMTQSPLSLPVTPGEPASISCQASESLVHSNRNTYLHWYLQKPGQSPQLLIYKVSNRFSGVPDRFSGSGSGTDFTLKISRVEAEDVGVYYCSQNTHVPPTFGQGTKVEIERTVAAPSVFIFPPSDEQLKSGTASVVCLLNNFYPREAKVQWKVDNALQSGNSQESVTEQDSKDSTYSLSSTLTLSKADYEKHKVYACEVTHQGLSSPVTKSFNRGEC
75.2% | 77.1% | 66.7% | 100% | GpH7-A5/GpH7-B3 variant P271_04F/GpL16-k0 (antibody, human IgG1, kappa, heterodimerized IgG1, one H chain mutated; also called He Ab) heavy 1: not shown heavy 2: not shown light: DIVMTQSPLSLPVTPGEPASISCQASESLVHSNRNTYLHWYLQKPGQSPQLLIYKVSNRFSGVPDRFSGSGSGTDFTLKISRVEAEDVGVYYCSQNTHVPPTFGQGTKVEIERTVAAPSVFIFPPSDEQLKSGTASVVCLLNNFYPREAKVQWKVDNALQSGNSQESVTEQDSKDSTYSLSSTLTLSKADYEKHKVYACEVTHQGLSSPVTKSFNRGEC
75.9% | 73.5% | 55% | 93.5% | GpH7-A5/GpH7-B3 variant L235_13S/GpL16-k0 (antibody, human IgG1, kappa, heterodimerized IgG1, one H chain mutated; also called He Ab) heavy 1: not shown heavy 2: not shown light: DIVMTQSPLSLPVTPGEPASISCQASESLVHSNRNTYLHWYLQKPGQSPQLLIYKVSNRFSGVPDRFSGSGSGTDFTLKISRVEAEDVGVYYCSQNTHVPPTFGQGTKVEIERTVAAPSVFIFPPSDEQLKSGTASVVCLLNNFYPREAKVQWKVDNALQSGNSQESVTEQDSKDSTYSLSSTLTLSKADYEKHKVYACEVTHQGLSSPVTKSFNRGEC
152% | 131% | 168% | 95.9% | GpH7-A5/GpH7-B3 variant L235_20W/GpL16-k0 (antibody, human IgG1, kappa, heterodimerized IgG1, one H chain mutated; also called He Ab) heavy 1: not shown heavy 2: not shown light: DIVMTQSPLSLPVTPGEPASISCQASESLVHSNRNTYLHWYLQKPGQSPQLLIYKVSNRFSGVPDRFSGSGSGTDFTLKISRVEAEDVGVYYCSQNTHVPPTFGQGTKVEIERTVAAPSVFIFPPSDEQLKSGTASVVCLLNNFYPREAKVQWKVDNALQSGNSQESVTEQDSKDSTYSLSSTLTLSKADYEKHKVYACEVTHQGLSSPVTKSFNRGEC
150% | 135% | 170% | 100% | GpH7-A5/GpH7-B3 variant L235_15Y/GpL16-k0 (antibody, human IgG1, kappa, heterodimerized IgG1, one H chain mutated; also called He Ab) heavy 1: not shown heavy 2: not shown light: DIVMTQSPLSLPVTPGEPASISCQASESLVHSNRNTYLHWYLQKPGQSPQLLIYKVSNRFSGVPDRFSGSGSGTDFTLKISRVEAEDVGVYYCSQNTHVPPTFGQGTKVEIERTVAAPSVFIFPPSDEQLKSGTASVVCLLNNFYPREAKVQWKVDNALQSGNSQESVTEQDSKDSTYSLSSTLTLSKADYEKHKVYACEVTHQGLSSPVTKSFNRGEC
142% | 74.6% | 235% | 105% | GpH7-A5/GpH7-B3 variant P238_10E/GpL16-k0 (antibody, human IgG1, kappa, heterodimerized IgG1, one H chain mutated; also called He Ab) heavy 1: not shown heavy 2: not shown light: DIVMTQSPLSLPVTPGEPASISCQASESLVHSNRNTYLHWYLQKPGQSPQLLIYKVSNRFSGVPDRFSGSGSGTDFTLKISRVEAEDVGVYYCSQNTHVPPTFGQGTKVEIERTVAAPSVFIFPPSDEQLKSGTASVVCLLNNFYPREAKVQWKVDNALQSGNSQESVTEQDSKDSTYSLSSTLTLSKADYEKHKVYACEVTHQGLSSPVTKSFNRGEC
94.7% | 69.8% | 107% | 101% | GpH7-A5/GpH7-B3 variant P271_14T/GpL16-k0 (antibody, human IgG1, kappa, heterodimerized IgG1, one H chain mutated; also called He Ab) heavy 1: not shown heavy 2: not shown light: DIVMTQSPLSLPVTPGEPASISCQASESLVHSNRNTYLHWYLQKPGQSPQLLIYKVSNRFSGVPDRFSGSGSGTDFTLKISRVEAEDVGVYYCSQNTHVPPTFGQGTKVEIERTVAAPSVFIFPPSDEQLKSGTASVVCLLNNFYPREAKVQWKVDNALQSGNSQESVTEQDSKDSTYSLSSTLTLSKADYEKHKVYACEVTHQGLSSPVTKSFNRGEC
110% | 99.8% | 87.8% | 92.7% | GpH7-A5/GpH7-B3 variant L235_16H/GpL16-k0 (antibody, human IgG1, kappa, heterodimerized IgG1, one H chain mutated; also called He Ab) heavy 1: not shown heavy 2: not shown light: DIVMTQSPLSLPVTPGEPASISCQASESLVHSNRNTYLHWYLQKPGQSPQLLIYKVSNRFSGVPDRFSGSGSGTDFTLKISRVEAEDVGVYYCSQNTHVPPTFGQGTKVEIERTVAAPSVFIFPPSDEQLKSGTASVVCLLNNFYPREAKVQWKVDNALQSGNSQESVTEQDSKDSTYSLSSTLTLSKADYEKHKVYACEVTHQGLSSPVTKSFNRGEC
